{
  "source": "paper PMC9889962",
  "about": "(Antibody Therapeutics, 2023)",
  "binders": {"B1": {"name": "LiVE-Longer YTE chimera (ACE-2 LVE/STR-YTE fusion protein) (Fc fusion)", "chain": "QSTIEEQAKLFLDKFNVEAEDLFYQSSLASWNYNTNITEENVQNMNNAGDKWSAFLKEQSTLAQMYPLQEIQELTVKLQLQALQQNGSSVLSEDKSKRLNTILNTMSTIYSTGKVCNPDNPQECLLLEPGLNEIMANSLDYNERLWAWESWRSEVGKQLRPLYEEYVVLKNEMARANHYEDYGDYWRGDYEVNGVDGYDYSRGQLIEDVEHTFEEIKPLYEHLHAYVRAKLMNAYPSYISPIGCLPAHLLGDMWGRFWTNLYSLTVPFGQKPNIDVTDAMVDQAWDAQRIFKEAEKFFVSVGLPNMTQGFWENSMLTDPGNVQKAVCHPTAWDLGKGDFRILMCTKVTMDDFLTAHHEMGHIQYDMAYAAQPFLLRNGANEGFHEAVGEIMSLSAATPKHLKSIGLLSPDFQEDNETEINFLLKQALTIVGTLPFTYMLEKWRWMVFKGEIPKDQWMKKWWEMKREIVGVVEPVPHDETYCDPASLFHVSNDYSFIRYYTRTLYQFQFQEALCQAAKHEGPLHKCDISNSTEAGQKLFNMLRLGKSEPWTLALENVVGAKNMNVRPLLNYFEPLFTWLKDQNKNSFVGWSTDWSPYADQSIKVRISLKSALGDKAYEWNDNEMYLFRSSVAYAMRQYFLKVKNQMILFGEEDVRVANLKPRISFNFFVTAPKNVSDIIPRTEVEKAIRMSRSRINDAFRLNDNSLEFLGIQPTLGPPNQPPVS"}},
  "target": "T1, FcRn receptor (UniProt P55899 24-365)",
  "T1 construct": "also called purified FcRn",
  "assay": "SPR",
  "conditions": "both partners purified",
  "data": [
    {"binder": "B1", "values": [
      {"measurement": "Kd", "value": 27, "unit": "nM"}
    ]}
  ]
}
